6 molecules from patent publication US20250144178A1 (KANAPH THERAPEUTICS, published 2025) can be followed below.

The chains are these.
T1: recombinant human FAP (human, UniProt Q12884 26-760)
T1 construct: Soluble analyte in SPR; The description calls FAP a homodimer; also called rhFAP
T1 sequence (looked up): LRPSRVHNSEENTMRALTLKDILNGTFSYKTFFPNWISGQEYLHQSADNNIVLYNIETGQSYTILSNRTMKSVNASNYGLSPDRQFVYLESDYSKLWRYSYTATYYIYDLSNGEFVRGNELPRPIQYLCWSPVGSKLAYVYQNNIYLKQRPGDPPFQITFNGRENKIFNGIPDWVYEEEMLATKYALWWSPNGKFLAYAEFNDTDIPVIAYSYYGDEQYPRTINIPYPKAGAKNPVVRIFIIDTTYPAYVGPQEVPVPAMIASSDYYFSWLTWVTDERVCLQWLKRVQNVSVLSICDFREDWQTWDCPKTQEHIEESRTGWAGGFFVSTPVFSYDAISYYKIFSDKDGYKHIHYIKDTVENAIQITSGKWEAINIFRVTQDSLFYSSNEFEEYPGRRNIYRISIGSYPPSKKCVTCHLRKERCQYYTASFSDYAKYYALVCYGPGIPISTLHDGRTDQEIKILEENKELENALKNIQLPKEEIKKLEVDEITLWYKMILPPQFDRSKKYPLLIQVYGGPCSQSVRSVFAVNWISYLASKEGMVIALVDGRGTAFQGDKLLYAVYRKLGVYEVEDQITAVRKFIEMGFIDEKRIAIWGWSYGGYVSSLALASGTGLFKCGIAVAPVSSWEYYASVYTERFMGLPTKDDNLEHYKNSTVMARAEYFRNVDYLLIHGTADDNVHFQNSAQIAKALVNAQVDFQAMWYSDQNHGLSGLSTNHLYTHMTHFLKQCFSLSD

B1: T1.08 (anti-hu FAP/hu IL-12, hu IgG1 DANG (2 + 1, LC scFv)) (bispecific antibody)
heavy: QVQLVQSGAEVKKPGASVKVSCKTSRYTFTEYTIHWVRQAPGQRLEWIGGINPNNGIPNYNQKFKGRVTITVDTSASTAYMELSSLRSEDTAVYYCARRRIAYGYDEGHAMDYWGQGTLVTVSSASTKGPSVFPLAPSSKSTSGGTAALGCLVKDYFPEPVTVSWNSGALTSGVHTFPAVLQSSGLYSLSSVVTVPSSSLGTQTYICNVNHKPSNTKVDKKVEPKSCDKTHTCPPCPAPELLGGPSVFLFPPKPKDTLMISRTPEVTCVVVAVSHEDPEVKFNWYVDGVEVHNAKTKPREEQYGSTYRVVSVLTVLHQDWLNGKEYKCKVSNKALPAPIEKTISKAKGQPREPQVYTLPPSRDELTKNQVSLWCLVKGFYPSDIAVEWESNGQPENNYKTTPPVLDSDGSFFLYSKLTVDKSRWQQGNVFSCSVMHEALHNHYTQKSLSLSPGK
light: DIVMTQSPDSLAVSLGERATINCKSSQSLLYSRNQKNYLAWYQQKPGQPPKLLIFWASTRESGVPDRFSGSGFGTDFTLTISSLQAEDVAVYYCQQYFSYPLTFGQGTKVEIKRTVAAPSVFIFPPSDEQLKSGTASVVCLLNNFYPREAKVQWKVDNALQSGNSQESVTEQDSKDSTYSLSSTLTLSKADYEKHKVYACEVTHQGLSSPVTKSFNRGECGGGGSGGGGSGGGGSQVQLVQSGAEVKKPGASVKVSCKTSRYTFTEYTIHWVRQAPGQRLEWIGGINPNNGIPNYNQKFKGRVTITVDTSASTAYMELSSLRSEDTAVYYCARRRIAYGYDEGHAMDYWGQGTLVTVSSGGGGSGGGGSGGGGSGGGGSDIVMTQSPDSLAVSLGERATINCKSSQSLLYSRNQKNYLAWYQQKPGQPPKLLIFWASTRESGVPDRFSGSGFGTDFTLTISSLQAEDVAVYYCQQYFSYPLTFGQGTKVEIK
chain: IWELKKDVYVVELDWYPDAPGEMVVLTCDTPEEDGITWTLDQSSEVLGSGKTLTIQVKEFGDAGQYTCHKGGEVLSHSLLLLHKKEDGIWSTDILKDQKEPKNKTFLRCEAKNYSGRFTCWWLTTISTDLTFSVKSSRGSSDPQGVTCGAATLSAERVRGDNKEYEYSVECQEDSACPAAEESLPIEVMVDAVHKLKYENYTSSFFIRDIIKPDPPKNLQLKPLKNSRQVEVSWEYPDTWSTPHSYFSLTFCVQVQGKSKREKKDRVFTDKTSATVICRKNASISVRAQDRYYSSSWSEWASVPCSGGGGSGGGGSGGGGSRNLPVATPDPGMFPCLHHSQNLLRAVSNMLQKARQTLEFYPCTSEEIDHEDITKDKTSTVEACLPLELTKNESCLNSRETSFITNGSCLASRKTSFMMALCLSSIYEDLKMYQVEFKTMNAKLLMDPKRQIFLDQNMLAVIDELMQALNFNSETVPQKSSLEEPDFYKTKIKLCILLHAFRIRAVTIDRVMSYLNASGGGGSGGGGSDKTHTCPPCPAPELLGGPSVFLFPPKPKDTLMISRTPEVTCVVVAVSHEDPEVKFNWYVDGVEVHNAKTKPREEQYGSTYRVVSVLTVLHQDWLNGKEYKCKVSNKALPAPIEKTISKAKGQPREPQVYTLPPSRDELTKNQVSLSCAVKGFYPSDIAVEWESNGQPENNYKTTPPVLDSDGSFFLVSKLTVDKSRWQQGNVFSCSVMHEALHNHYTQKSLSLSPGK
notes: Anti-FAP scFv at the C-terminus of the light chain; knob-in-hole with the IL-12 arm
B2: T1.09 (anti-hu FAP/hu IL-12 mut2, hu IgG1 DANG (2 + 1, LC scFv)) (bispecific antibody)
heavy: QVQLVQSGAEVKKPGASVKVSCKTSRYTFTEYTIHWVRQAPGQRLEWIGGINPNNGIPNYNQKFKGRVTITVDTSASTAYMELSSLRSEDTAVYYCARRRIAYGYDEGHAMDYWGQGTLVTVSSASTKGPSVFPLAPSSKSTSGGTAALGCLVKDYFPEPVTVSWNSGALTSGVHTFPAVLQSSGLYSLSSVVTVPSSSLGTQTYICNVNHKPSNTKVDKKVEPKSCDKTHTCPPCPAPELLGGPSVFLFPPKPKDTLMISRTPEVTCVVVAVSHEDPEVKFNWYVDGVEVHNAKTKPREEQYGSTYRVVSVLTVLHQDWLNGKEYKCKVSNKALPAPIEKTISKAKGQPREPQVYTLPPSRDELTKNQVSLWCLVKGFYPSDIAVEWESNGQPENNYKTTPPVLDSDGSFFLYSKLTVDKSRWQQGNVFSCSVMHEALHNHYTQKSLSLSPGK
light: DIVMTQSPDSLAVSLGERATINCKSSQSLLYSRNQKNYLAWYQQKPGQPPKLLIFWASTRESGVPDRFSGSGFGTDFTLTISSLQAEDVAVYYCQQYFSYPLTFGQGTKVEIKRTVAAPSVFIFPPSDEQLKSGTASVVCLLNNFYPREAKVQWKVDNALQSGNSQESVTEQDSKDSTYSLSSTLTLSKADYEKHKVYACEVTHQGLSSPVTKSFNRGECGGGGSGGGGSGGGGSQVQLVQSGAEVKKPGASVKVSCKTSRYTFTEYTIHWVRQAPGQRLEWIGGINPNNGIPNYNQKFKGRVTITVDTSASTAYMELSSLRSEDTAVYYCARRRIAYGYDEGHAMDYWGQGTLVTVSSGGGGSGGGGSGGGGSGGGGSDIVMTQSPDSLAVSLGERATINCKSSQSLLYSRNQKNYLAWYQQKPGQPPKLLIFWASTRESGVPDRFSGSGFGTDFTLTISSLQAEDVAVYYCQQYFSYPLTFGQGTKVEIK
chain: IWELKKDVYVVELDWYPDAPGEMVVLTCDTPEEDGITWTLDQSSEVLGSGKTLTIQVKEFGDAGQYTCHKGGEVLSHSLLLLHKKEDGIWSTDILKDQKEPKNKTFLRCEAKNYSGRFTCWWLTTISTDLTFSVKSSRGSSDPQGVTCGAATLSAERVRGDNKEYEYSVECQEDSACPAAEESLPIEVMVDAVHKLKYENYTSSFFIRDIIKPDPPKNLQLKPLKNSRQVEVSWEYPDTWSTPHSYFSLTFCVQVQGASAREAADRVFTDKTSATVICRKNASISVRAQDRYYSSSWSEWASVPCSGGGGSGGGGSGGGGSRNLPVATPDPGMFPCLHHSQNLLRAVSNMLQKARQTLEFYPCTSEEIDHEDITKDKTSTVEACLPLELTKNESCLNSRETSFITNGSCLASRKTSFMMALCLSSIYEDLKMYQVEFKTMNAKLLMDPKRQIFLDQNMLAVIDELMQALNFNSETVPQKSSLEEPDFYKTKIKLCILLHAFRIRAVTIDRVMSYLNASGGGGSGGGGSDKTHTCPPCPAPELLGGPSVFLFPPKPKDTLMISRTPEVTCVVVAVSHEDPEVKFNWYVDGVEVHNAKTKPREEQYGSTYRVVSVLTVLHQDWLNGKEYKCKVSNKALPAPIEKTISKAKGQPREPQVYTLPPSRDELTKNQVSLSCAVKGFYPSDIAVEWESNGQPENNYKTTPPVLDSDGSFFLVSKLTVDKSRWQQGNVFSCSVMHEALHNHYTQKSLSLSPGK
notes: Anti-FAP scFv at the C-terminus of the light chain; knob-in-hole with the IL-12 mut2 arm
B3: T1.06 (anti-hu FAP/hu IL-12, hu IgG1 DANG (2 + 1, HC scFv)) (bispecific antibody)
heavy: QVQLVQSGAEVKKPGASVKVSCKTSRYTFTEYTIHWVRQAPGQRLEWIGGINPNNGIPNYNQKFKGRVTITVDTSASTAYMELSSLRSEDTAVYYCARRRIAYGYDEGHAMDYWGQGTLVTVSSASTKGPSVFPLAPSSKSTSGGTAALGCLVKDYFPEPVTVSWNSGALTSGVHTFPAVLQSSGLYSLSSVVTVPSSSLGTQTYICNVNHKPSNTKVDKKVEPKSCDKTHTCPPCPAPELLGGPSVFLFPPKPKDTLMISRTPEVTCVVVAVSHEDPEVKFNWYVDGVEVHNAKTKPREEQYGSTYRVVSVLTVLHQDWLNGKEYKCKVSNKALPAPIEKTISKAKGQPREPQVYTLPPSRDELTKNQVSLWCLVKGFYPSDIAVEWESNGQPENNYKTTPPVLDSDGSFFLYSKLTVDKSRWQQGNVFSCSVMHEALHNHYTQKSLSLSPGKGGGGSGGGGSGGGGSQVQLVQSGAEVKKPGASVKVSCKTSRYTFTEYTIHWVRQAPGQRLEWIGGINPNNGIPNYNQKFKGRVTITVDTSASTAYMELSSLRSEDTAVYYCARRRIAYGYDEGHAMDYWGQGTLVTVSSGGGGSGGGGSGGGGSGGGGSDIVMTQSPDSLAVSLGERATINCKSSQSLLYSRNQKNYLAWYQQKPGQPPKLLIFWASTRESGVPDRFSGSGFGTDFTLTISSLQAEDVAVYYCQQYFSYPLTFGQGTKVEIK
light: not shown
chain: not shown
notes: Anti-FAP scFv at the C-terminus of the heavy chain; knob-in-hole with the IL-12 arm
B4: T1.07 (anti-hu FAP/hu IL-12 mut2, hu IgG1 DANG (2 + 1, HC scFv)) (bispecific antibody)
heavy: QVQLVQSGAEVKKPGASVKVSCKTSRYTFTEYTIHWVRQAPGQRLEWIGGINPNNGIPNYNQKFKGRVTITVDTSASTAYMELSSLRSEDTAVYYCARRRIAYGYDEGHAMDYWGQGTLVTVSSASTKGPSVFPLAPSSKSTSGGTAALGCLVKDYFPEPVTVSWNSGALTSGVHTFPAVLQSSGLYSLSSVVTVPSSSLGTQTYICNVNHKPSNTKVDKKVEPKSCDKTHTCPPCPAPELLGGPSVFLFPPKPKDTLMISRTPEVTCVVVAVSHEDPEVKFNWYVDGVEVHNAKTKPREEQYGSTYRVVSVLTVLHQDWLNGKEYKCKVSNKALPAPIEKTISKAKGQPREPQVYTLPPSRDELTKNQVSLWCLVKGFYPSDIAVEWESNGQPENNYKTTPPVLDSDGSFFLYSKLTVDKSRWQQGNVFSCSVMHEALHNHYTQKSLSLSPGKGGGGSGGGGSGGGGSQVQLVQSGAEVKKPGASVKVSCKTSRYTFTEYTIHWVRQAPGQRLEWIGGINPNNGIPNYNQKFKGRVTITVDTSASTAYMELSSLRSEDTAVYYCARRRIAYGYDEGHAMDYWGQGTLVTVSSGGGGSGGGGSGGGGSGGGGSDIVMTQSPDSLAVSLGERATINCKSSQSLLYSRNQKNYLAWYQQKPGQPPKLLIFWASTRESGVPDRFSGSGFGTDFTLTISSLQAEDVAVYYCQQYFSYPLTFGQGTKVEIK
light: not shown
chain: not shown
notes: Anti-FAP scFv at the C-terminus of the heavy chain; knob-in-hole with the IL-12 mut2 arm
B5: T1.04 (anti-hu FAP/hu IL-12, hu IgG1 DANG (2 + 1)) (bispecific antibody)
heavy: QVQLVQSGAEVKKPGASVKVSCKTSRYTFTEYTIHWVRQAPGQRLEWIGGINPNNGIPNYNQKFKGRVTITVDTSASTAYMELSSLRSEDTAVYYCARRRIAYGYDEGHAMDYWGQGTLVTVSSGGGGSGGGGSGGGGSQVQLVQSGAEVKKPGASVKVSCKTSRYTFTEYTIHWVRQAPGQRLEWIGGINPNNGIPNYNQKFKGRVTITVDTSASTAYMELSSLRSEDTAVYYCARRRIAYGYDEGHAMDYWGQGTLVTVSSASTKGPSVFPLAPSSKSTSGGTAALGCLVKDYFPEPVTVSWNSGALTSGVHTFPAVLQSSGLYSLSSVVTVPSSSLGTQTYICNVNHKPSNTKVDKKVEPKSCDKTHTCPPCPAPELLGGPSVFLFPPKPKDTLMISRTPEVTCVVVAVSHEDPEVKFNWYVDGVEVHNAKTKPREEQYGSTYRVVSVLTVLHQDWLNGKEYKCKVSNKALPAPIEKTISKAKGQPREPQVYTLPPSRDELTKNQVSLWCLVKGFYPSDIAVEWESNGQPENNYKTTPPVLDSDGSFFLYSKLTVDKSRWQQGNVFSCSVMHEALHNHYTQKSLSLSPGK
light: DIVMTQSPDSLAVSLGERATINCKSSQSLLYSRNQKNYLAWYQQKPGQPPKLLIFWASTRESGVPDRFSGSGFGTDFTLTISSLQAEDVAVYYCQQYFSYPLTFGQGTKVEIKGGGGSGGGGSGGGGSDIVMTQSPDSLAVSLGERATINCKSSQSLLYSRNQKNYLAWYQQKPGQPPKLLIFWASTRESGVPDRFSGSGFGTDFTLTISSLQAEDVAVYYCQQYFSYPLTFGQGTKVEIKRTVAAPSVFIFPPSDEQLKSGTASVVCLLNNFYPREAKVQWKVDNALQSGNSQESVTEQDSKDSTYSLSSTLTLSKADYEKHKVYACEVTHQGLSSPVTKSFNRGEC
chain: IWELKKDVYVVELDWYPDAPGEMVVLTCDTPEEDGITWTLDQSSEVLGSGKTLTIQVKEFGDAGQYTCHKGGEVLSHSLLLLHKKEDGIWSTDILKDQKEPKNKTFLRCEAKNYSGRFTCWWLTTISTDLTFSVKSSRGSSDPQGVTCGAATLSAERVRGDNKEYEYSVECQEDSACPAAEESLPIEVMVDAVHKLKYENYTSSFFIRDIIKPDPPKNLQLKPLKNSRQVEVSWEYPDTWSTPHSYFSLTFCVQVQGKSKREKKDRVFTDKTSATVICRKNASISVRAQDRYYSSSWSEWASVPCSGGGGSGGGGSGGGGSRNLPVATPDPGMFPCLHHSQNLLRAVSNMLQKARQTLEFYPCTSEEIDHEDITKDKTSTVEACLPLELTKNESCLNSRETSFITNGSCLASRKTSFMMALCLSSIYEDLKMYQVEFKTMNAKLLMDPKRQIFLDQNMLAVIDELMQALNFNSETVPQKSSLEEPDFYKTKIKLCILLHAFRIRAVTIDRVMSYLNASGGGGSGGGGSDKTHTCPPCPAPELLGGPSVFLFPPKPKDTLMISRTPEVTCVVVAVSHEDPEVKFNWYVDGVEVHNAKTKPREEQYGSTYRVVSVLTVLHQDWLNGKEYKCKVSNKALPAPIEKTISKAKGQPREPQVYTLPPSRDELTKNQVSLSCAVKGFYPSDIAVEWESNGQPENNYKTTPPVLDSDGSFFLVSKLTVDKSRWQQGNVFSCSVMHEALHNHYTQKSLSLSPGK
notes: DVD-Ig form of the anti-FAP arm, knob-in-hole with the IL-12 arm
B6: T1.05 (anti-hu FAP/hu IL-12 mut2, hu IgG1 DANG (2 + 1)) (bispecific antibody)
heavy: QVQLVQSGAEVKKPGASVKVSCKTSRYTFTEYTIHWVRQAPGQRLEWIGGINPNNGIPNYNQKFKGRVTITVDTSASTAYMELSSLRSEDTAVYYCARRRIAYGYDEGHAMDYWGQGTLVTVSSGGGGSGGGGSGGGGSQVQLVQSGAEVKKPGASVKVSCKTSRYTFTEYTIHWVRQAPGQRLEWIGGINPNNGIPNYNQKFKGRVTITVDTSASTAYMELSSLRSEDTAVYYCARRRIAYGYDEGHAMDYWGQGTLVTVSSASTKGPSVFPLAPSSKSTSGGTAALGCLVKDYFPEPVTVSWNSGALTSGVHTFPAVLQSSGLYSLSSVVTVPSSSLGTQTYICNVNHKPSNTKVDKKVEPKSCDKTHTCPPCPAPELLGGPSVFLFPPKPKDTLMISRTPEVTCVVVAVSHEDPEVKFNWYVDGVEVHNAKTKPREEQYGSTYRVVSVLTVLHQDWLNGKEYKCKVSNKALPAPIEKTISKAKGQPREPQVYTLPPSRDELTKNQVSLWCLVKGFYPSDIAVEWESNGQPENNYKTTPPVLDSDGSFFLYSKLTVDKSRWQQGNVFSCSVMHEALHNHYTQKSLSLSPGK
light: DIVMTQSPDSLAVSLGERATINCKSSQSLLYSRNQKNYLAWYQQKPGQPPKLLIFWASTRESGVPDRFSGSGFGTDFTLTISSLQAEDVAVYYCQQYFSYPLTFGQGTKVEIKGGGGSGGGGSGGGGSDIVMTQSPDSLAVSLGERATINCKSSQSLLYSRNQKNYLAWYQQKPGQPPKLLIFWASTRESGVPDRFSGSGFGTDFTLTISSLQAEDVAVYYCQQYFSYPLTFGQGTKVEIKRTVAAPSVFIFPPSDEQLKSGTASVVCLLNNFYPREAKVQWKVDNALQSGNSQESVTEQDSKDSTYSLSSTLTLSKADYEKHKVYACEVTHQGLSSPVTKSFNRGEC
chain: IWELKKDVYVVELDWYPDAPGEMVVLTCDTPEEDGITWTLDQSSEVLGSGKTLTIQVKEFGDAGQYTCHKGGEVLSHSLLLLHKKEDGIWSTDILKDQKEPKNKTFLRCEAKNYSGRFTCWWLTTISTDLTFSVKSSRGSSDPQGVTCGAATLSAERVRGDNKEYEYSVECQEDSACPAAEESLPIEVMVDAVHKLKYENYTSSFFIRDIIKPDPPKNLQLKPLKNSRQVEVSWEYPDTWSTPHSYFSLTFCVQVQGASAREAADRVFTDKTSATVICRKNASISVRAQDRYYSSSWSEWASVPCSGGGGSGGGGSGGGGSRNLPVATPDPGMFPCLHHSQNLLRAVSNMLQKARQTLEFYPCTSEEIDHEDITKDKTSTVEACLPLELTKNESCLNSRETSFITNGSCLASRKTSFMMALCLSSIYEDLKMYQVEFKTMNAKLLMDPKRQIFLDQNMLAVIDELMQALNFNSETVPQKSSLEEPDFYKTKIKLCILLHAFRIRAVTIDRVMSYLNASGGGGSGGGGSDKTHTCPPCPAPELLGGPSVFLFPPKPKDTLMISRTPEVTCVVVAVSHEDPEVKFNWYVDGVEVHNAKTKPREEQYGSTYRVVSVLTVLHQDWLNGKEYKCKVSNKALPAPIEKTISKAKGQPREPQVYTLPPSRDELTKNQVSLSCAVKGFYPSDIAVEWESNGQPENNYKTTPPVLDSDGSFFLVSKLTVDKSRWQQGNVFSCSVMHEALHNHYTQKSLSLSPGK
notes: DVD-Ig form of the anti-FAP arm, knob-in-hole with the IL-12 mut2 arm

This assay concerns the target T1, recombinant human FAP. The experiment in a line: SPR, captured by anti-human IgG (Fc), human FAP analyte, 1:1 binding model. Here is the method: Bindings of T1.04, T1.05, T1.06, T1.07, T1.08, T1.09, T1.10 and T1.11 to recombinant human […] were identified by surface plasmon resonance (SPR). The surface of the CM5 chip was activated with a 1:1 mixture of […] (N-hydroxysuccinimide) and […] (1-Ethyl-3-(3-dimethylaminopropyl) carbodiimide), and 25 μg/ml of anti-human IgG (Fc) antibody was immobilized for 400 seconds at a rate of 10 μl/min. The remaining active ester groups were blocked with 1 M ethanolamine.
Specifically, human proteins T1.04, T1.05, T1.06, T1.07, T1.08, T1.09, T1.10 and T1.11 were diluted to 1 μg/ml, 1 μg/ml, 1 μg/ml, 1 μg/ml, 0.5 μg/ml, 0.5 μg/ml, 0.5 μg/ml, and 1 μg/ml, respectively, and reacted on a CM5 chip immobilized with an anti-human IgG (Fc) antibody. The recombinant human FAP was diluted to 25 nM or 50 nM in 1×HBS-EP+buffer solution and diluted by serial dilution. The diluted recombinant human FAP was reacted at a rate of 30 μl/min. The association and dissociation times were 180 seconds and 400 seconds, respectively. After the dissociation, stabilization was performed for 60 seconds, and then a regeneration was performed for 30 seconds with a 10 mM glycine pH 1.5 solution at a rate of 30 μl/min.
A general note: SPR reads the build-up and loss of mass on a sensor chip optically.
By Kd is commonly meant the equilibrium constant for the complex coming apart. The term koff denotes the first-order rate constant of dissociation. By kon is commonly meant the second-order rate constant of association. Consider B1, for which the Kd is 0.177 nM, the off-rate constant (koff) worked out at 7.87e-05 s⁻¹ and the on-rate (kon) worked out at 446000 M⁻¹ s⁻¹.

Take B2: the Kd was found to be 0.214 nM, the koff was 0.000111 s⁻¹ and the kon worked out at 517000 M⁻¹ s⁻¹.

For the molecule B3, the equilibrium dissociation constant (Kd) worked out at 0.596 nM, the koff was determined as 6.22e-05 s⁻¹ and the association rate constant (kon) was found to be 104000 M⁻¹ s⁻¹.

Turning to B4, the Kd stood at 0.128 nM, the dissociation rate constant (koff) turned out to be 7.64e-05 s⁻¹ and the kon is 597000 M⁻¹ s⁻¹.

Regarding B5, the Kd amounted to 0.0257 nM, the koff came out at 1.5e-05 s⁻¹ and the kon was 583000 M⁻¹ s⁻¹.

For B6, the Kd came out at 0.0932 nM, the koff came to 5.83e-05 s⁻¹ and the kon amounted to 625000 M⁻¹ s⁻¹.
